Reference: the Immune Epitope Database (IEDB)

Experiments:
HLA-A*26:01 = experiment: IEDB peptide-MHC binding, purified MHC/direct/fluorescence; filed as Kd, often an IC50 or EC50 that approximates it; ≥ and ≤ were set here for values at or beyond the usual limits of such assays
HLA-A*69:01 = experiment: as above
HLA-A*01:01 [1] = experiment: as above
HLA-B*35:01 = experiment: as above
HLA-B*08:01 = experiment: as above
HLA-A*03:01 = experiment: as above
HLA-B*44:02 = experiment: as above
HLA-A*11:01 = experiment: as above
HLA-A*02:01 = experiment: as above
HLA-B*58:01 = experiment: as above
HLA-B*07:02 = experiment: as above
HLA-B*40:01 = experiment: as above
HLA-A*24:03 = experiment: as above
HLA-B*15:01 [2] = experiment: as above
HLA-B*39:01 = experiment: as above
HLA-B*18:01 = experiment: as above
HLA-A*68:02 [3] = experiment: as above
HLA-B*48:01 = experiment: as above
HLA-A*26:02 = experiment: as above
HLA-B*27:05 = experiment: as above
HLA-A*31:01 = experiment: as above
HLA-A*26:03 = experiment: as above
HLA-B*15:17 [4] = experiment: as above
HLA-B*73:01 = experiment: as above; conditions: source organism: Vibrio vulnificus YJ016
HLA-B*57:01 [5] = experiment: as above
HLA-A*30:01 = experiment: as above
HLA-B*46:01 = experiment: as above; conditions: source organism: Giardia lamblia ATCC 50803
HLA-B*08:02 = experiment: as above; conditions: source organism: Giardia lamblia ATCC 50803
HLA-A*01:01 [6] = experiment: IEDB peptide-MHC binding, purified MHC/competitive/fluorescence; filed as Kd, often an IC50 or EC50 that approximates it; ≥ and ≤ were set here for values at or beyond the usual limits of such assays; conditions: source organism: Giardia lamblia ATCC 50803
HLA-A*68:02 [7] = experiment: as above; conditions: source organism: Giardia lamblia ATCC 50803
HLA-B*15:17 [8] = experiment: as above; conditions: source organism: Giardia lamblia ATCC 50803
HLA-B*57:01 [9] = experiment: as above; conditions: source organism: Giardia lamblia ATCC 50803
HLA-B*15:01 [10] = experiment: as above; conditions: source organism: Giardia lamblia ATCC 50803
[11] = source organism: Rickettsia prowazekii
[12] = source organism: Vibrio vulnificus YJ016
[13] = source organism: Escherichia coli O157:H7
[14] = source organism: Giardia intestinalis
[15] = source organism: Giardia lamblia ATCC 50803
[16] = source organism: Influenza A virus (A/swine/Italy/809/1989(H3N2))
[17] = source organism: Influenza A virus H3N2

Measured: Kd

QFAGGSFDF
0.0141 µM: HLA-B*35:01; [11]
≥ 10 µM: HLA-A*11:01; [11]
0.336 µM: HLA-A*24:03; [11]
≥ 20 µM: HLA-A*26:01; [11] | HLA-A*69:01; [11] | HLA-A*01:01 [1]; [11] | HLA-B*08:01; [11] | HLA-A*03:01; [11] | HLA-B*44:02; [11] | HLA-A*02:01; [11] | HLA-B*07:02; [11] | HLA-B*40:01; [11]
0.35 µM: HLA-B*15:01 [2]; [11]
0.0416 µM: HLA-B*58:01; [11]

KRFYQTVGF
4 µM: HLA-B*73:01
0.0895 µM: HLA-B*27:05; [12]
≥ 20 µM: HLA-A*69:01; [12] | HLA-B*39:01; [12] | HLA-B*18:01; [12] | HLA-A*01:01 [1]; [12] | HLA-B*08:01; [12] | HLA-A*03:01; [12] | HLA-A*68:02 [3]; [12] | HLA-B*48:01; [12] | HLA-A*11:01; [12] | HLA-A*26:02; [12] | HLA-A*31:01; [12] | HLA-A*02:01; [12] | HLA-B*58:01; [12] | HLA-B*07:02; [12] | HLA-A*26:03; [12] | HLA-B*15:17 [4]; [12] | HLA-B*57:01 [5]; [12] | HLA-B*15:01 [2]; [12]

PSSKPDWFY
1.04 µM: HLA-B*35:01; [13]
0.0197 µM: HLA-A*01:01 [1]; [13]
15.2 µM: HLA-B*15:01 [2]; [13]
≥ 20 µM: HLA-A*26:01; [13] | HLA-A*69:01; [13] | HLA-B*08:01; [13] | HLA-A*03:01; [13] | HLA-B*44:02; [13] | HLA-A*11:01; [13] | HLA-B*27:05; [13] | HLA-A*31:01; [13] | HLA-A*02:01; [13] | HLA-B*58:01; [13] | HLA-B*07:02; [13] | HLA-B*40:01; [13] | HLA-A*24:03; [13]

DYAMHGTVF
2.36 µM: HLA-A*24:03; [14]
≥ 20 µM: HLA-A*26:01; [14] | HLA-A*69:01; [14] | HLA-A*01:01 [1]; [14] | HLA-A*03:01; [14] | HLA-B*44:02; [14] | HLA-B*27:05; [14] | HLA-A*02:01; [14] | HLA-B*40:01; [14]
0.0621 µM: HLA-B*35:01; [14]
14.6 µM: HLA-B*08:01; [14]
3.8 µM: HLA-B*15:01 [2]; [14]
≥ 10 µM: HLA-B*58:01; [14]
8.71 µM: HLA-B*07:02; [14]
≥ 58.5 µM: HLA-A*30:01; [14]

KSNRIPFLY
0.212 µM: HLA-B*15:01 [10]
≥ 20 µM: HLA-A*26:01; [15] | HLA-B*18:01; [15] | HLA-B*46:01 | HLA-B*08:01; [15] | HLA-B*48:01; [15] | HLA-B*08:02 | HLA-A*26:02; [15] | HLA-B*27:05; [15] | HLA-A*02:01; [15] | HLA-B*07:02; [15] | HLA-A*26:03; [15] | HLA-B*40:01; [15] | HLA-A*68:02 [7]
0.243 µM: HLA-B*57:01 [9]
0.002 µM: HLA-B*58:01; [15]
2.37 µM: HLA-A*31:01; [15]
0.022 µM: HLA-A*03:01; [15]
0.203 µM: HLA-A*01:01 [6]
0.01 µM: HLA-B*15:17 [8]
0.007 µM: HLA-A*11:01; [15]

FMGRLGPEY
16.1 µM: HLA-A*30:01; [15]
4.09 µM: HLA-A*01:01 [1]; [15]
≥ 20 µM: HLA-A*26:01; [15] | HLA-A*69:01; [15] | HLA-B*08:01; [15] | HLA-A*03:01; [15] | HLA-B*44:02; [15] | HLA-A*11:01; [15] | HLA-B*27:05; [15] | HLA-A*31:01; [15] | HLA-A*02:01; [15] | HLA-B*58:01; [15] | HLA-B*40:01; [15]
0.14 µM: HLA-B*15:01 [2]; [15]
0.117 µM: HLA-B*35:01; [15]
≥ 5 µM: HLA-A*24:03; [15]

EEIRRIWRQ
≥ 20 µM: HLA-A*69:01; [16] | HLA-B*39:01; [17] | HLA-A*01:01 [1]; [16] | HLA-A*03:01; [16] | HLA-A*68:02 [3]; [16] | HLA-B*44:02; [16] | HLA-B*48:01; [16] | HLA-A*11:01; [16] | HLA-A*26:02; [17] | HLA-B*27:05; [16] | HLA-A*31:01; [16] | HLA-A*02:01; [16] | HLA-B*58:01; [16] | HLA-B*07:02; [16] | HLA-A*26:03; [17] | HLA-B*15:17 [4]; [16] | HLA-B*40:01; [16] | HLA-B*57:01 [5]; [16] | HLA-B*15:01 [2]; [16]
9.02 µM: HLA-B*18:01; [16]
